Measured values reported in a protein production outcome set (Wang et al. 2014).

Experiment: label from the status in PepcDB records

For “MISIPVAQQQKLPRLVLPRVYGFPPNRETLGGTAYLIVENDGNTLIDSPPWTDGSQHWLREQGGVKRLILTHRGAIARVRAIQDTFDCEVMIHAQEAYLLPQVTVTPFNHHLAIGETLEILWTPGHSPGSACVYWSCQGGVLFTGRHLLPTPTGELAPIKTATTFHWPRQLRSVEALKAFCRQKSLSYLCPGANMGFLRGTLAIANAQAVLQGLSVDNLLCDKFLEHHHHHH”, which protein production is on record?
Its protein production is “failed”.

Which protein production does the source give for “MISNALKQGNLSPELEEKLVCMQKQQENANSTNEWETCSRGSVNEEALTPSRQTDDTEWKIRTSLRRPNAMTTSSQFNRILKKNRSKNDEVAELGEQKQSQLERHKELLKKNILRKRSLLERNLQSEIHEDVKTKVQRHVRPLSNASPDEQSENERSGEPNLDFKR” here?
Its protein production is “failed”.

For “MISPERLRVYRFFASLTDEQLKDIALISEEKSFPTGSVIFKENSKADNLMLLLEGGVELFYSNGGAGSAANSTVCSVVPGAIFGVSSLIKPYHYTSSARATKPVRVVDINGARLREMSENNQALGQVLMNNVAAAVLARLH”, which protein production is on record?
Its protein production is “not failed”.

With “MISTFALFWALCIVCIINMARYYSSLRVLLMILRDCDPLLYQYVDGGGFFTSHGQPSKQIRLVGYIYAQRYLDHHDPEFIRRCERVRGQFLLTTALCGLIVISLIAMMMWY” as the sequence, how does the protein production read?
Its protein production is “failed”.

For “MISVAHSPDADDIFMYYAIKFGWIDCPIKNKAFHNIALDIETLNQEALKNTYDVSAISFGLYPKIANDYALLPTATSFGNGYGPKLVKKKGVKLKKDFRVALSGEHTTNALLFKIYYKHARITYMNFLDIEKAVLEEKVHAGVLIHESILDFHNELEVEKELWDVWKELIEVDLPLPLGGMAIRRSIPLYRAILIKKALIKAVEVALKHQNLLSGMLLERSLIRVNKERLRTYLSLYANETSTRLSEIQILAIDKLFELGYQHGFYASLLKTKDCLLTDEYLKYRFS”, which protein production is on record?
The protein production was “failed”.

Which protein production does the source give for “MITFIGHVSKDVNVVDGKREIAYGGGVVMGAITSSLLGVKTKVITKCTREDVSKFSFLRDNGVEVVFLKSPRTTSIENRYGSDPDTRESFLISAADPFTESDLAFIEGEAVHINPLWYGEFPEDLIPVLRRKVMFLSADAQGFVRVPENEKLVYRDWEMKEKYLKYLDLFKVDSREAETLTGTNDLRESCRIIRSFGAKIILATHASGVIVFDGNFYEASFRSWSLEGRTGRGDTCTAAFLVGFVFKKMSIEKATKFAAAVTSVKMRHPGPLRREDLEAISGDQYF” here?
Its protein production is “not failed”.

With “MITGTLINALTVVFASLLGLAIGSRLSESIRGAIINVLGLAVLLIGISMALETKNVLIPTLSVVAGTAVGEVMGIEKALQSFGDRVERRLGKGRFSEGFVAATLLYCVGPMAILGPIQEGLTGDMSVLMAKSLLDGVASVALASALGIGVAFSSISILVYQGFFALLAAQLSSVVTERIIAEFTSTGGLLIMGIGINLLELRKLRVGNMLPALIFAPLIVAVLQLTGL” as the sequence, how does the protein production read?
Its protein production is “failed”.

With “MITILIFINIVKVVLFLFFLMTGTKIISGKMADEFKRFGLPSFFNFLTGAFEIVGAIGMLIGIWISTVALWAGLLLGGTMLAAALTLIVLARDPFKKAIPALVLFVLSLGISLYHIF” as the sequence, how does the protein production read?
Its protein production is “failed”.

With “MITLQKAEASDLEKIIAIQRASFKAVYEKYHDQYDPYVEEVEQIRWKLVERPDCFYHFVLVDETIVGFLRLVIKDEEKRAWLGTAAILPQYQGQGYGSAAMALLEKTYPKLTKWDLCTIAQEKLMVSFYEKCGYHSTHTEPEQEGMDMVYMTKKIE” as the sequence, how does the protein production read?
The protein production was “failed”.

Which protein production does the source give for “MITLTTDFGLKGPYVGEMKVAMLRINPNAKIVDVTHSVTRHSILEGSFVMEQVVKYSPKGTVHVGVIDPGVGTERRAIVIEGDQYLVVPDNGLATLPLKHIKVKSVYEIIPDKIRKFTGWEISSTFHGRDIFGPAGALIEKGIHPEEFGREIPVDSIVKLNVEPRKEGDVWILKVIYIDDFGNVILNLENYEKPRTVELLDFNLRLPYLETYGLVEKGEMLALPGSHDYLEIAVNMGSAAERLNVKVGDELRVRLL” here?
The protein production was “not failed”.

For “MITRSEIFEYAEKTFGAKPDYPFKTYPHYAILRHLDDQKWFGLVMNVPKDKLGLEGEGDVDVIDIKCHPDKVHDLKIKAGFLPAYHMNKEHWLTAVLDGSVTKEEVFSLLAESYELTK”, which protein production is on record?
The protein production was “failed”.

For “MITYHSNALQSERQMYVWTPPGYTGMGEPLPVLYFYHGFGDTGRSAIDQGRIPQIMDNLLAEGKIKPMLVVIPDTETDAKGIIPEDFVPQERRKVFYPLNAKAADRELMNDIIPLISKRFSVRKDADGRALAGLSQGGYQALVSGMNHLESFGWLATFSGVTTTTVPDEGVAARLNDPAAINQQLRNFTVVVGDKDVVTGKDIAGLKTELEQKKIKFDYQEYPGLNHEMDVWRPAYAAFVQKFKIRHLEHHHHHH”, which protein production is on record?
Its protein production is “failed”.

Which protein production does the source give for “MIVAAPEQYSRDRDWQQAIAAGELTLALQPQMGLRNRQLRGFEVQLRWQHPQQGTLLASQLMEHLEQSQHRETVGRWFLDQAGQLLSQWRNSAQFSGLFALSLLPQQWKSPSFIHDLRSLLETYQIPPEQLELDLPAQSLAESAAESWDWVYAVRDLGIGIGLADFGSRSIGLYDLRNLPLTTLKLERRFVRGLPDDANDRAIVRGVVAMSQALKVRIVARGVDTVDQAKFLARAECDAMQGLAYSAPLEHHHHHH” here?
Its protein production is “failed”.

For “MIVFVRFNSSYGFPVEVDSDTSIFQLKEVVAKRQGVPADQLRVIFAGKELQNHLTVQNCDLEQQSIVHIVQRPQRKSHETNASGGDKPQSTPEGSIWEPRSLTRVDLSSHILPADSVGLAVILDTDSKSDSEAARGPAAKPTYHSFFVYCKGPCHKVQPGKLRVQCGTCRQATLTLAQGPSCWDDVLIPNRMSGECQSPDCPGTRAEFFFKCGAHPTSDKDTSVALNLITNNSRSIPCIACTDVRNPVLVFQCNHRHVICLDCFHLYCVTRLNDRQFVHDAQLGYSLPCVAGCPNSLIKELHHFRILGEEQYNRYQQYGAEECVLQMGGVLCPRPGCGAGLLPEQGQRKVTCEGGNGLGCGFVFCRDCKEAYHEGECDSMFEASGATSQAYRVDQRAAEQARWEEASKETIKKTTKPCPRCNVPIEKNGGCMHMKCPQPQCKLEWCWNCGCEWNRACMGDHWFDV”, which protein production is on record?
The protein production was “failed”.

Which protein production does the source give for “MIVFYDSWCPMCTAVAERTKKLDKKGKVKFVSFRDEDVVEKYELSQELQSKMEQRLYIFKNNKWYDGIHSIHVLAKSIPSYWFAVPFIKLSIVLGFGNKVYDYIANNRKLVPVGHCRGGVCEIPTKK” here?
The protein production was “failed”.

With “MIVGGRRAPLPRFFSRPVEFAALSLDPEKDPIDVFDDAYFFVHAAFSHVPGKYRGGEGDDPKSFHRLNLDGTVRLFEAAKRAGTRRCVFLSSRAAYGDYPPGIELVETMLPKPETLYGQIKLDAEGALTHLSAPGFAGVSLRATGVYGDLTPGKWDDLIADYLAGRPVAARAGTEVHGRDLGRAVRLMLETESTRISGEVFNISDITVDTQDILAPIRRETSGPHALPPPADKAALNPMSTAKIRALGWMPGGTPLFEETMRRLAAALPVSPRHRSAQDRQASSSGGRQPQTGTT” as the sequence, how does the protein production read?
The protein production was “failed”.

Which protein production does the source give for “MIVGRDGVGVVEHAEQGPRIAVAVVTMGNRPAEVDALLASVAKQDLPPARIVIVGNGCPLPEFARRLDLPGEVTGIEVDENLGCPGGRNVALAKLREFGDVDVVVELDDDGLLVDADVLRRVRDLYAADPRLGIVGFRIADENGETQRRHVPRVGKSDPLRGGPVTGFLGGGHALSMAMLARTGDWPAEFFFAHEETDLAWRATDAGWTILYAPELLLQHPKTSPARHAIYHRVTARNRVWLARRRLPLPLIPVHLGIWIAVTLVRTRSAGGLRAWFGGFMEGVRTSGGERRPMRWRTVWRLTRLGRPPVILEHHHHHH” here?
The protein production was “failed”.

With “MIYPDETMLYAPVEWHDCSEGYTDIRYEKSTDGIAKITINRPQVRNAFRPLTVKEMIQALADARYDDNVGVIILTGEGDKAFCAGGDQKVRGDYGGYQDDSGVHHLNVLDFQRQIRTCPKPVVAMVAGYSIGGGHVLHMMCDLTIAAENAIFGQTGPKVGSFDGGWGASYMARIVGQKKAREIWFLCRQYDAQQALDMGLVNTVVPLADLEKETVRWCREMLQNSPMALRCLKAALNADCDGQAGLQELAGNATMLFYMTEEGQEGRNAFNQKRQPDFSKFKRNP” as the sequence, how does the protein production read?
The protein production was “not failed”.

With “MIYWLSLASAAFIGLAALVWKMSAIARENRVLKAEFSLGRLKKELNVFFISDIHRRTVSEDIICEVKERGVQLVIIGGDLAEGGVPYTRIEENIKRLSSLGKTYFVWGNNDYEVDQERLLEIFKTYGVTPLRNASVLHDHQGQTVNICGVDDIRLELDDYPAALGGVQPGFPTVLVSHNPEIHHQIQEADGIDLILSGHTHGGQIRFGRFGLCEIGGTGTVFKAPYLISNGYGTSKLPLRLGARPETHLINLVPGPRMEGN” as the sequence, how does the protein production read?
The protein production was “failed”.

Which protein production does the source give for “MIYYGTMFDHKVRFSIVRMREVVEEARNRHALSYLATVVLGRALIGAALVTPWLAEKERWTLDIEGNGPIRRVVAQSTSEFTVRGYVANPKVELPLNEKGKFDVAGAIGQGVLRVVRDLGLKTPFVSQVPLVSGEIAEDLAYYFAVSEQIPSAFSIGVLVDSDGVKIAGGFAVQIIDRTLEQEKVEMIEKNIKNLPSISKLFQEAEPLDVLERIFGEKVGFVETAEIKYKCDCNREKAKNALLVLDKKELEDMRKEGKGEVVCKWCNTRYVFSEEELEELLKFKVDDSGS” here?
Its protein production is “not failed”.

With “MKADKWNHVETARYFRDLQENEVRTMHYLGLAYVVLSRRPNLQLKVPLSTQNYEDGAIVGAGERGGYALQLLFTCAANYPLARPLVEIVEKRNVSDAFEQVLRKEIDLILEEHLGLQMIVPVVTRLQITLNTEMKR” as the sequence, how does the protein production read?
Its protein production is “not failed”.

For “MKAELIAVGTEILTGQIVNTNAQFLSEKMAELGIDVYFQTAVGDNEERLLSVITTASQRSNLVILCGGLGPTKDDLTKQTLAKYLRKDLVYDEQACQKLDDFFAKRKPSSRTPNNERQAQVIEGSIPLPNKTGLAVGGFITVDGISYVVLPGPPSELKPMVNEELVPLLSKQYSTLYSKVLRFFGIGESQLVTVLSDFIENQTDPTIAPYAKTGEVTLRLSTKTE”, which protein production is on record?
The protein production was “failed”.

For “MKAGIHPDYKKVVFMDTNTGFKFLSGSTKGSNETVEWEDGNTYPLLKVEISSDSHPFYTGRQKFATADGRVDRFNKKYGLK”, which protein production is on record?
The protein production was “failed”.

Which protein production does the source give for “MKAIILAGGHSVRFGKPKAFAEVNGETFYSRVIKTLESTNMFNEIIISTNAQLATQFKYPNVVIDDENHNDKGPLAGIYTIMKQHPEEELFFVVSVDTPMITGKAVSTLYQFLVSHLIENHLDVAAFKEDGRFIPTIAFYSPNALGAITKALHSDNYSFKNIYHELSTDYLDVRDVDAPSYWYKNINYQHDLDALIQKLLEHHHHHH” here?
The protein production was “not failed”.

Which protein production does the source give for “MKAKHLTQLLKASFLSCSMIATTLSMAQLPPAPQEKYGDGRVSEFYTWKSAIPAQPGKLLRTEAVHNPYIRLANDSQAIRILYSSTSGKDSKTPIVVSGSIHLPKGNPPKEGWPVVLWAHGTVGLADACAPSWSGRSYRDVQYLNRWLNEGFAVVATDYEGLGVAGPHLLINNPMLAYSILDSGRAALKTKLPLANKFVIVGQSQGGAGAVAASSYSATYAPDLNIKGSIGTGVIYKDPEATPEKNQLKLNPYEVSPSLAYGIYSFLVTQSLYPEIKTEEIFTPEAAPLVEQARNACLTSFMGDIQTAGLSPAQAYKPNPPTSYKKLQEKESNDYGYYPTLKISHPLFIGTGANDRTPDARSQMKLVADACKAGTVVEGHLYHGLGHSETVNASLKDSIPFAKKVIAGEKIQAICKPDLQ” here?
Its protein production is “failed”.

For “MKALLPGLYLLPVPIPYPLKTVNLYLLQGAGEVALVDTALGTRAARGALELHLAELGLCFQDVKTILLTHHHPDHYGLSGFFEGLGARVFLHEEEFARGHRFWREPEAFAEASWRLFLDHGTPEGALQGIRETVEKTRERVHPPQNPLPLRDGEALEVAGKRLRVLWTPGHADGHAAFYLEEEGVLLAGDALLEKVSPNVGLWAYTRENPLKDFLRSLDRLADLGARVAYAGHFGPIADVRQRAEELKAHHQARLEALLALLDGPKTAWELSLHLFPQELDPAGRRFAFAETLAHLEYLREEGAVGRGGPPYRYFRR”, which protein production is on record?
The protein production was “not failed”.
